Experimental data taken from patent US20180051079A1 (MacroGenics, published 2018).

T1: CD32B (UniProt P31994 43-217, limits assumed)
T1 construct: Only the name is printed; also called FcγRIIB
T1 sequence (looked up): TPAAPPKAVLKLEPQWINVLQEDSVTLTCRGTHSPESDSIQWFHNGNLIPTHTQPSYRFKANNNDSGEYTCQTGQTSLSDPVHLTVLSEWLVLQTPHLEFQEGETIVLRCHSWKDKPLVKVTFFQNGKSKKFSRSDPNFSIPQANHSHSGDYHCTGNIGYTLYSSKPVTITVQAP


Experiments:
[1] = biological target: T1, CD32B; experiment: assay not named in Table 4; cell stands under CD16A F158 but fits CD32B (0.94/1.07 = 0.88)
[2] = biological target: T1, CD32B; experiment: assay not named in Table 4
[3] = biological target: T2, CD16A V158 (UniProt P08637 17-208, limits assumed); experiment: assay not named in Table 4
T2 construct: Only the name and allotype are printed; also called FcγRIIIA
T2 sequence (P08637 17-208 F176V limits assumed): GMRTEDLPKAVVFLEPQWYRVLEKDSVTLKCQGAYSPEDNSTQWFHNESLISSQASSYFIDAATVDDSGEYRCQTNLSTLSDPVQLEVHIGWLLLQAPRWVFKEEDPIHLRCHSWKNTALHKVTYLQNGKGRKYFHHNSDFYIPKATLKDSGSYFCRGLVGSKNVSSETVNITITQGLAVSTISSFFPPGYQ

[4] = biological target: T3, CD16A F158 (UniProt P08637 17-208, limits assumed); experiment: assay not named in Table 4
T3 construct: Only the name and allotype are printed; also called FcγRIIIA
T3 sequence (P08637 17-208 limits assumed): as the sequence (P08637 17-208 F176V limits assumed) above, with V160F counted along it

| binding relative to wild-type Fc [1] | binding relative to wild-type Fc [2] | binding relative to wild-type Fc [3] | binding relative to wild-type Fc [4] | Binder |
| --- | --- | --- | --- | --- |
| 1.07 | 1.07 | – | – | Fc variant D270E G316D P396L R416G (other, UniProt P01857-1 104-330, looked up, domain: Fc; also called D270E P396L G316D R416G) DKTHTCPPCPAPELLGGPSVFLFPPKPKDTLMISRTPEVTCVVVDVSHEEPEVKFNWYVDGVEVHNAKTKPREEQYNSTYRVVSVLTVLHQDWLNDKEYKCKVSNKALPAPIEKTISKAKGQPREPQVYTLPPSRDELTKNQVSLTCLVKGFYPSDIAVEWESNGQPENNYKTTPLVLDSDGSFFLYSKLTVDKSGWQQGNVFSCSVMHEALHNHYTQKSLSLSPGK |
| – | 0.92 | 1.85 | 1.9 | Fc variant R292P V305I P396L (other, UniProt P01857-1 104-330, looked up, domain: Fc; also called Mutant 15) DKTHTCPPCPAPELLGGPSVFLFPPKPKDTLMISRTPEVTCVVVDVSHEDPEVKFNWYVDGVEVHNAKTKPPEEQYNSTYRVVSILTVLHQDWLNGKEYKCKVSNKALPAPIEKTISKAKGQPREPQVYTLPPSRDELTKNQVSLTCLVKGFYPSDIAVEWESNGQPENNYKTTPLVLDSDGSFFLYSKLTVDKSRWQQGNVFSCSVMHEALHNHYTQKSLSLSPGK |
